Each binder was assayed against hMRP5-Δ1-94-8xHis (human, UniProt O15440 95-1437, RED-tris-NTA 2nd Generation dye on the His tag) (assay: MST).
Sequence of hMRP5-Δ1-94-8xHis (O15440 95-1437, stated change not applied): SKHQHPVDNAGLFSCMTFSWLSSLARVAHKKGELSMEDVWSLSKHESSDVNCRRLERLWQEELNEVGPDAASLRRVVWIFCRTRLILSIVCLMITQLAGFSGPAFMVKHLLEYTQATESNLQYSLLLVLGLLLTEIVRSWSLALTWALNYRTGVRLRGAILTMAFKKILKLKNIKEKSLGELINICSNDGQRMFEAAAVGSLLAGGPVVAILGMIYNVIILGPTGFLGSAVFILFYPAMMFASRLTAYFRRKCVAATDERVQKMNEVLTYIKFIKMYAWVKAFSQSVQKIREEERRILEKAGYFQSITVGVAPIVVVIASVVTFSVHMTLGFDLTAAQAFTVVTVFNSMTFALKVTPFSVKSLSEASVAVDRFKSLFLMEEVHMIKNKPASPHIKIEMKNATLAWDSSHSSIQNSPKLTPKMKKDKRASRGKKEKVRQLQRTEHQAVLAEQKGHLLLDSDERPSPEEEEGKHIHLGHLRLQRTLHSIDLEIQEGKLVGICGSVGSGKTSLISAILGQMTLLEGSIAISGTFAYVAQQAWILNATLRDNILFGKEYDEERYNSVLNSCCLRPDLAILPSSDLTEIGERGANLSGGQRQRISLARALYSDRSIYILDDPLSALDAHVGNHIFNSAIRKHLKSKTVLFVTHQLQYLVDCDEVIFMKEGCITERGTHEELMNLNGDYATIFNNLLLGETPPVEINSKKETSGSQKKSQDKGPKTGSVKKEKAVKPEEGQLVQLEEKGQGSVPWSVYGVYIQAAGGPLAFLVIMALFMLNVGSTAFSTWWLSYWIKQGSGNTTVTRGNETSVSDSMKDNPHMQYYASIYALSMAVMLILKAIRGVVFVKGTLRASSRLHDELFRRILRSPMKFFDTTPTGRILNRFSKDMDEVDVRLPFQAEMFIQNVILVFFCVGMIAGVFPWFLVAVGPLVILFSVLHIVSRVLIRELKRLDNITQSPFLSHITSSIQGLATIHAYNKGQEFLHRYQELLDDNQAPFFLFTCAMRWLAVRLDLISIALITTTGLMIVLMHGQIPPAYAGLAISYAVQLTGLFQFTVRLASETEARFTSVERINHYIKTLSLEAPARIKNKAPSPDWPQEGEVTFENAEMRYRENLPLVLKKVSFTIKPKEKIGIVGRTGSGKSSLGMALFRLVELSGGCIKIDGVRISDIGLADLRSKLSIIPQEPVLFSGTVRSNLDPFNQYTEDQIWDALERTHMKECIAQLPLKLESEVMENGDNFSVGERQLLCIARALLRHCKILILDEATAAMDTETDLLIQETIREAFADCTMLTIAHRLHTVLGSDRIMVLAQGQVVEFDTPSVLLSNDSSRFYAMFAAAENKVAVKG
RTRPLECQDALETAARAEGLSLDASMHSQLR [Arg40-Arg70 peptide of hMRP5] was tested, and the Kd was 50.7 µM. Work on DSKFRRTRPLECQDALETAARAEGLSLDASMHSQLRILDEE [Asp35-Glu75 peptide of hMRP5] yielded a Kd of 34.6 µM. CSKFRRTRPLECQDALETAARAEGLSLDASMHSQLRILDEC [MRP5 potential peptide inhibitor (M5PI)] showed a Kd of 2.66 µM. CQDALETAARAEGLSLDAS [Cys46-Ser64 peptide of hMRP5] was tested, and the Kd was 24.1 µM. DIGKEYIIPSPGYRSVRERTS [Asp5-Ser25 peptide of hMRP5] showed a Kd of 24.4 µM.
